Laboratory results as given in paper PMC4817975 (PLoS ONE, 2016).
Where two headings read alike, the source gives them in different places.

What was measured:
[1] = target: T1, Human kappa opioid receptor (KOR) (Homo sapiens, UniProt P41145); test: Time-resolved SPA stability assay of high-affinity [3H]-DPN binding; settings: for τ1, exponential time constant: exponential decay fit; for N1, initial active receptor population: exponential decay fit (single for DDM, double for Nanodiscs)
T1 construct: made in house; host or cells: Pichia pastoris
T1 sequence (P41145 whole entry): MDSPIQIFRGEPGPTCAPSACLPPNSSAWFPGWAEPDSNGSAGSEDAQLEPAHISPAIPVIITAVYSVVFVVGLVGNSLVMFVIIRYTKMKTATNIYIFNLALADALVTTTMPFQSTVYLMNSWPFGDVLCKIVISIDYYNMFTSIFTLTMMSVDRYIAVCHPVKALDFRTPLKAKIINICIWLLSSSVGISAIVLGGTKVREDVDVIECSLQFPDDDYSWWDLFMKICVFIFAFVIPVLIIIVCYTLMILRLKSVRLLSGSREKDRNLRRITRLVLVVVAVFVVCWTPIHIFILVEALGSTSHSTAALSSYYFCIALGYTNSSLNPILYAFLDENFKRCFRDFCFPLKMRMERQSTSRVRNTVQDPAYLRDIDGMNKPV
Description: All procedures were performed on ice or at 4°C until assay counting was initiated at room temperature (23°C). Time-resolved stability assay with detergent-extracted MPs was carried out directly after solubilization in binding buffer I (20 mM Tris-HCl, pH 7.4, 500 mM NaCl, 5% glycerol, 1 mM PMSF, 0.1 mM TCEP, 0.4% BSA). Solubilized proteins were diluted in the assay resulting in a final concentration of 0.1% DDM in the assay buffer. Stability assays performed with KOR reconstituted in Nanodiscs were done in binding buffer II (20 mM Tris-HCl pH 7.4, 100 mM NaCl pH 7.4, 0.4% BSA). KOR/Nanodisc samples were added at quantities corresponding to approximately 30 fmol/well. Samples were mixed with 0.5 mg/well yttrium silicate (YSi) streptavidin coated SPA beads (Perkin Elmer) in binding buffer and a final concentrations of 10 nM [^3H]-DPN (42.3 Ci/mmol, Perkin Elmer) in a total volume of 200 μl. In parallel, the non-specific binding was measured including 50 μM naloxone in the assay. All measurements were performed in triplicates in a white-wall clear-bottom 96-well plate (Wallac). The assay was gently shaken on a vibrating platform at 4°C for 1.5 hours to equilibrate ligand binding and immobilization of receptors on the SPA beads. After incubation the assay was counted with a liquid scintillation counter (Wallac Microbeta TriLux 1450, SPA cpm mode) repeatedly with 17 min between measurements at room temperature. As a control, the same assay conditions as described above were performed at RT and bound and free radioligands were separated at specific time points on Sephadex G-50 gravity-flow columns (GE Healthcare) equilibrated in binding buffer. After applying 50 μl of samples, columns were centrifuged for 2 min at 1000 x g. Separated samples were mixed with scintillation liquid and incubated for 1 hour at RT, before counting on a liquid scintillation counter. As data analysis, specific binding was normalized to the initial binding at time zero, corresponding to initiation of assay counting at RT. The half-life of high-affinity ligand binding was calculated from fitting to single or double exponential decay functions in Igor Pro 6.1.

[2] = target: T1, Human kappa opioid receptor (KOR); test: Radioligand filter binding assay (saturation), KOR in P. pastoris membranes; settings: one-site model, read-out: KD, P.Pastoris membrane
Description: Specific ligand binding to KOR in P. pastoris membranes was measured by radioligand filter binding assay. Isolated P. pastoris membranes were diluted in binding buffer (50 mM Tris-HCl pH 7.4, 0.5 M NaCl, 1mg/ml BSA) and mixed in triplicates with radioligand [^3H]-diprenorpine (DPN, 42.3 Ci/mmol, Perkin Elmer) in concentrations varying from 0.08 to 10 nM in a 96 well plate (MultiScreen HTS-FC 1.2/0.65 μm glass fiber filter), which was pre-wetted in washing buffer (50 mM Tris-HCl buffer, pH 7.4). Non-specific binding was measured in parallel by including 50 μM naloxone. For each binding experiment, membranes corresponding to 3–5 μg/well were used keeping the ratio of bound radioligand <10% of the total added radioligand. The assay mixture was incubated for 2 h at room temperature. To separate bound from free ligands, the plate was rapidly filtrated and washed four times with 100 μl ice-cold washing buffer. Scintillation liquid (Ultima Gold XR, Perkin Elmer) was added to the wells and the assay was counted by a liquid scintillation counter (Wallac Microbeta TriLux 1450). Specific binding was calculated and KD was measured from saturation curves fitted to a one-site binding model using Igor Pro 6.1.

[3] = target: T2, Human kappa opioid receptor (KOR) reconstituted in Nanodiscs (Homo sapiens, UniProt P41145); settings: SPA saturation binding, one-site model
T2 construct: made in house; host or cells: Pichia pastoris (KOR)
T2 sequence (P41145 whole entry): as above
Description: In parallel non-specific binding was measured in the presence of 50 μM naloxone. […] Therefore, saturation and inhibition binding assays were performed with reduced SPA beads/well; 0.25 mg/well of streptavidin-coated SPA YSI beads. […] Ki was measured from the IC50 value.

KOR = target: KOR; design: method as in PMID 22437504, PMID 15956349; settings: literature value; cited from earlier work
[4] = 10 nM [3H]-DPN, 23°C, double exponential fit

Substance | τ1, exponential time constant ([1]; 10 nM [3H]-DPN, 23°C) [h] | N1, initial active receptor population ([1]; 10 nM [3H]-DPN, 23°C) [%] | time to complete loss of ligand binding activity ([1]; room temperature (23°C), 10 nM [3H]-DPN) [min] | Kd ([2]; listed as [^3H]-DPN) [nM] | Kd [2] [nM] | Kd [3] [nM] | Kd ([3]; listed as [^3H]-DPN) [nM] | Kd (KOR) [nM] | N2, initial active receptor population (slow component) [1, 4] [%] | τ2, exponential time constant [1, 4] [h] | N2, initial active receptor population (slow component) ([1]; 10 nM [3H]-DPN, 23°C, double exponential fit, listed as KOR reconstituted in Nanodiscs) [%] | ligand binding relative to the initial activity after 100 minutes ([1]; after counting for 100 minutes at room temperature, n = 5) [%] | stability improvement (Taverage in Nanodiscs vs half-life in DDM micelles) ([1]; from fitted curves)
KOR in DDM micelles: human kappa opioid receptor solubilized in DDM/CHS, 0.1%/0.02% in the assay | 0.4 ± 0.01 | 97.4 ± 1.5 | ≤ 100 |  |  |  |  |  |  |  |  |  | 
diprenorpine [[3H]-DPN] |  |  |  | 0.94 ± 0.14 | 0.9 ± 0.1 | 0.8 ± 0.2 | 0.84 ± 0.15 | 0.8 |  |  |  |  | 
KOR in Nanodiscs: human kappa opioid receptor reconstituted in MSP1E3D1 Nanodiscs with POPC:POPG 3:2 | 1.2 ± 0.1 | 29.4 ± 0.8 |  |  |  |  |  |  | 68.9 ± 0.7 | 36.8 ± 1.6 | 68.9 | 73.5 ± 2.5 | approximately 70 fold
